From paper PMC5984625, “Dynamic structural states of ClpB involved in its disaggregation function” (Nature Communications, 2018) come the findings set out here.

In series [1] the target is N-terminal deletion mutant of TClpB (ΔN-TClpB) (Thermus thermophilus). Nature of the series: high-speed atomic force microscopy (HS-AFM); self-association; sample preincubated with 2 mM ATP at 55 °C for 1 min, adsorbed on bare mica, imaged at 25 °C in 50 mM MOPS pH 7.5, 20 mM KCl, 5 mM MgCl2 with ATP (10 μM to 2 mM for ΔN-TClpB, 0.5 mM for full length, 1 mM for the mutants; also 1 mM ATPγS or ADP).

For series [2] the target is unchanged. Nature of the series: native MS; incubated at 55 °C with 2 mM ATP or ATPγS for 1 min, exchanged into 150 mM ammonium acetate pH 7.5 with 100 µM ATP or ATPγS at 4 °C; nanoflow electrospray.
Series [3] has the same target. The series is described as follows: AUC; sedimentation velocity, 20 °C, 42,000 rpm, 50 mM MOPS pH 7.5, 50 mM KCl, 5 mM MgCl2, 0.5 and 2.0 mg/mL protein, with 20 mM ADP (preincubated 55 °C 1 min).
The target is the same in series [4]. Nature of the series: AUC; sedimentation velocity, 20 °C, 42,000 rpm, 50 mM MOPS pH 7.5, 50 mM KCl, 5 mM MgCl2, 0.5 and 2.0 mg/mL protein, with 20 mM ATP (preincubated 55 °C 1 min).
For series [5] the target is unchanged. The series is described as follows: AUC; sedimentation velocity, 20 °C, 42,000 rpm, 50 mM MOPS pH 7.5, 50 mM KCl, 5 mM MgCl2, 0.5 and 2.0 mg/mL protein, with 2 mM ATPγS (preincubated 55 °C 1 min).
For series [6], the target named is ΔN-TClpB hyperactive mutant Y494D (Thermus thermophilus). The series is described as follows: high-speed atomic force microscopy (HS-AFM); self-association; sample preincubated with 2 mM ATP at 55 °C for 1 min, adsorbed on bare mica, imaged at 25 °C in 50 mM MOPS pH 7.5, 20 mM KCl, 5 mM MgCl2 with ATP (10 μM to 2 mM for ΔN-TClpB, 0.5 mM for full length, 1 mM for the mutants; also 1 mM ATPγS or ADP).

For series [7], the system named is T1, Nc1ncnc2c1ncn2[C@@H]1O[C@H](COP(=O)(O)OP(=O)(O)OP(=O)(O)O)[C@@H](O)[C@H]1O.
T1 construct: N-terminal domain deletion (AAA1, M-domain and AAA2 kept); from plasmid pMCB1; expressed in E. coli BL21(DE3) or KRX; purified; hexamer and smaller oligomers
Nature of the series: purified protein. Format: biochemical, Thermus thermophilus. The conditions noted are these: Hill equation fit, Hill coefficient 2.6 ± 0.6, pH 7.5, 20 mM KCl, 5 mM MgCl2, 25 °C.

In series [8] the target is ΔN-TClpB repressed mutant E423A (Thermus thermophilus). The series is described as follows: high-speed atomic force microscopy (HS-AFM); self-association; sample preincubated with 2 mM ATP at 55 °C for 1 min, adsorbed on bare mica, imaged at 25 °C in 50 mM MOPS pH 7.5, 20 mM KCl, 5 mM MgCl2 with ATP (10 μM to 2 mM for ΔN-TClpB, 0.5 mM for full length, 1 mM for the mutants; also 1 mM ATPγS or ADP).

Several values for one entry are separate records, joined by “and”; a condition that tells them apart may be missing. Identical values can stand only once.

Chain of ΔN-TClpB (Thermus thermophilus HB8) (chain, as listed by the source mutant): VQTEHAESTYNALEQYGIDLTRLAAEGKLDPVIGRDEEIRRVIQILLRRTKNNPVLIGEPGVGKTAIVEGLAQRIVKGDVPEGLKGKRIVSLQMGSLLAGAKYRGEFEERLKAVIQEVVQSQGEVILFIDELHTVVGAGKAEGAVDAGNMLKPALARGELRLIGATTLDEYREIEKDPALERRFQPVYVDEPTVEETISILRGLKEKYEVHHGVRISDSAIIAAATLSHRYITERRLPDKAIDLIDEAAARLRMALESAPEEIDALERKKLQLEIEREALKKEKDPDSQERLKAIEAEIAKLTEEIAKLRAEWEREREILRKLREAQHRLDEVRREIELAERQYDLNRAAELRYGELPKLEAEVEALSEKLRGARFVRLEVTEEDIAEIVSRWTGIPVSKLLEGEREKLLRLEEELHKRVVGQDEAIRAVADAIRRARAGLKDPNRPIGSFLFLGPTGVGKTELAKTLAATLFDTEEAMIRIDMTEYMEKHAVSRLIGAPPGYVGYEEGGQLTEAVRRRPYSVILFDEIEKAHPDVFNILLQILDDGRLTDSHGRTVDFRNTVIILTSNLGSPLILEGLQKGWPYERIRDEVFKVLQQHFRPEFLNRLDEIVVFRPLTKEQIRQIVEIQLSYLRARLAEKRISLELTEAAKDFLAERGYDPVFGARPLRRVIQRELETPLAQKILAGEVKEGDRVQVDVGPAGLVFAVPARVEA

One may read the stoichiometry N as the number of molecules, sites or subunits per partner or assembly. With “N-terminal deletion mutant of TClpB (ΔN-TClpB) (domain or fragment)”, the stoichiometry N in series [1] was 6 and 3 to 8 (2×); in series [2], 2 and 6; in series [3], below 6; in series [4], 6 and 3; in series [5], 6.

The substance “ΔN-TClpB hyperactive mutant Y494D (domain or fragment)” yielded a stoichiometry N in series [6] of 6.

Substance ΔN-TClpB (Thermus thermophilus HB8) showed a K0.5 in series [7] of 0.16 ± 0.02 mM.

“ΔN-TClpB repressed mutant E423A (domain or fragment)”: the stoichiometry N in series [8] came to 6.
